The values that follow come from the supplement of paper PMC12783771.

Changes are numbered by the printed parent chain. ± gives the standard deviation of the averaged measurements.

B1: library; a variant is named by its letters at X, in order (parent)
chain: MNIQIGELAKRTACPVVTIRFYEQEGLLPPPGRSRGNFRLYGEEHVERLQFIRHCRSLDMPLSXVRTLLSYRKRPDQDCGEVXMLLDEHIRQVESRIGALLELXHHXVELREACSGARPAQSCGILQXLSXCVCXTRGTTAHXSD
B2: library; a variant is named by its letters at X, in order (parent)
chain: B1 chain with I90X, H106X, X107L, X128G, X131D, X135D

The variants in series [1] derive from B1. Description: sfGFP reporter fluorescence (15 h) (µM FITC); higher = higher leak. The settings on record: library round: Round 3; ligand: none. The procedure: (§1)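 Cell-free biosensing: 1 µL Echo-assembled CFE reactions with linear PbrR variant templates (5 nM) and pPbrR-sfGFP reporter, with 1 µM Pb, 30 µM Zn or no ligand; endpoint sfGFP fluorescence after 15 h at 30 °C calibrated as µM FITC. Round 3 ML-predicted PbrR mutants; up to 3 biological replicates.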

Variants of B1 are the subject of series [2]. Description: sfGFP reporter fluorescence (15 h) (µM FITC); higher = stronger transcriptional activation. The conditions noted are these: library round: Round 3. The procedure:
as §1

Variants of B2 are the subject of series [3]. Description: sfGFP reporter fluorescence (15 h) (µM FITC); higher = higher leak. The settings on record: library round: Round 3b; ligand: none. In outline: (§2)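 Values are endpoint sfGFP fluorescence given as µM FITC equivalents. Fluorescence was read at 485/528 nm on a Synergy Neo2, and FITC standard curves were prepared in 50 mM sodium borate pH 8.5. Reactions of 1 μL combined BL21 Star (DE3) PANOx-SP extract, pPbrR-sfGFP reporter, 30 μg/mL GamS and linear PbrR templates (PCR-made, Echo-normalized to 5 nM), with 1 µM lead chloride, 30 µM zinc acetate or no metal, for 15 hr at 30 °C.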

The variants in series [4] derive from B2. The series can be described thus: sfGFP reporter fluorescence (15 h) (µM FITC); higher = stronger transcriptional activation. The conditions noted are these: library round: Round 3b. The gist of the method:
as §2

For the variant DCVLGDDP V16C H54A, the sfGFP reporter fluorescence is 0.0426 ± 0.0029 in series [1], 0.127 ± 0.0026 in series [2] (ligand: 1 µM Pb) and 0.0484 ± 0.0029 in series [2] (ligand: 30 µM Zn).
For DNKCGAAP H54C C55P H106L, the sfGFP reporter fluorescence in series [1] was found to be 0.04838 ± 0.00034; in series [2] (ligand: 1 µM Pb), 0.0446 ± 0.0014; in series [2] (ligand: 30 µM Zn) it was 0.0485 ± 0.0037.
For DTKLGMAP V108L, in that order: 0.0403 ± 0.00095, 0.0673 ± 0.0042 and 0.288 ± 0.018.
Turning to KNVEGDDP M60L P61N, the sfGFP reporter fluorescence in series [1] was 0.043 ± 0.00089; in series [2] (ligand: 1 µM Pb) it was 0.0385 ± 0.00085; in series [2] (ligand: 30 µM Zn) it was 0.047 ± 0.0012.
With DTKLGCDA Q121A, the values for the sfGFP reporter fluorescence in series [1], in series [2] (ligand: 1 µM Pb) and in series [2] (ligand: 30 µM Zn) were 0.0408 ± 0.00071, 0.107 ± 0.0045 and 0.117 ± 0.0042, respectively.
The matching figures for DTKLGDPR V108L: 0.043 ± 0.0024, 0.0866 ± 0.0042 and 0.142 ± 0.0031.
For the variant LCKCGAAP H54C C55P H106L, the sfGFP reporter fluorescence came to 0.0458 ± 0.0017 in series [1], 0.0424 ± 0.0028 in series [2] (ligand: 1 µM Pb) and 0.0474 ± 0.0026 in series [2] (ligand: 30 µM Zn).
As to KNVLMDDP M60L P61N, the sfGFP reporter fluorescence stood at 0.606 ± 0.027 in series [1], 1.64 ± 0.097 in series [2] (ligand: 1 µM Pb) and 2.45 ± 0.11 in series [2] (ligand: 30 µM Zn).
For KNVCMDDP V16C, the sfGFP reporter fluorescence in series [1] came out at 1.32 ± 0.056; in series [2] (ligand: 1 µM Pb), 3.46 ± 0.1; in series [2] (ligand: 30 µM Zn) it was 3.28 ± 0.18.
As to KNVCMDDP M60L P61N, the figures for the sfGFP reporter fluorescence in series [1], in series [2] (ligand: 1 µM Pb) and in series [2] (ligand: 30 µM Zn) were 0.987 ± 0.13, 2.86 ± 0.2 and 2.86 ± 0.26, respectively.
For the variant DTKLGDRR E109L, the sfGFP reporter fluorescence was determined as 0.0416 ± 0.0019 in series [1], 0.103 ± 0.005 in series [2] (ligand: 1 µM Pb) and 0.224 ± 0.0067 in series [2] (ligand: 30 µM Zn).
Take NNKCMDDP M60L P61N: the sfGFP reporter fluorescence was found to be 2.66 ± 0.24 in series [1], 3.55 ± 0.13 in series [2] (ligand: 1 µM Pb) and 3.4 ± 0.14 in series [2] (ligand: 30 µM Zn).
In the case of KNVCGDDP M60L P61S, the sfGFP reporter fluorescence came to 1.34 ± 0.11 in series [1], 3.29 ± 0.12 in series [2] (ligand: 1 µM Pb) and 2.58 ± 0.36 in series [2] (ligand: 30 µM Zn).
For KNVCGADP M60L, in that order: 3.05 ± 0.41, 3.59 ± 0.26 and 3.01 ± 0.067.
DTKCGSAP: the figures for the sfGFP reporter fluorescence in series [1], in series [2] (ligand: 1 µM Pb) and in series [2] (ligand: 30 µM Zn) were 0.21 ± 0.0021, 1.43 ± 0.041 and 2.22 ± 0.1, respectively.
With KNIVAT, the sfGFP reporter fluorescence in series [3] worked out at 0.092 ± 0.0023; in series [4] (ligand: 1 µM Pb) it was 0.52 ± 0.048; in series [4] (ligand: 30 µM Zn) it was 1.42 ± 0.2.
As for DNATER, the sfGFP reporter fluorescence in series [3] was 0.0446 ± 0.0017; in series [4] (ligand: 1 µM Pb) it was 0.0458 ± 0.0017; in series [4] (ligand: 30 µM Zn), 0.0522 ± 0.0022.
The matching figures for DNATET: 0.0419 ± 0.00051, 0.0463 ± 0.0026 and 0.0623 ± 0.0031.
DIIVAT: the sfGFP reporter fluorescence was found to be 0.0468 ± 0.0037 in series [3], 0.131 ± 0.0097 in series [4] (ligand: 1 µM Pb) and 0.0469 ± 0.005 in series [4] (ligand: 30 µM Zn).
Regarding KNATET, the sfGFP reporter fluorescence came out at 0.055 ± 0.0007 in series [3], 0.324 ± 0.017 in series [4] (ligand: 1 µM Pb) and 0.34 ± 0.031 in series [4] (ligand: 30 µM Zn).
Regarding KNATEP, the sfGFP reporter fluorescence in series [3] amounted to 0.0501 ± 0.0039; in series [4] (ligand: 1 µM Pb) it was 0.279 ± 0.052; in series [4] (ligand: 30 µM Zn) it was 0.261 ± 0.015.
For KNATER, in that order: 0.0529 ± 0.0011, 0.343 ± 0.014 and 0.336 ± 0.035.
Consider KIAVEP, for which the sfGFP reporter fluorescence in series [3] worked out at 0.0654 ± 0.0022; in series [4] (ligand: 1 µM Pb) it was 0.997 ± 0.055; in series [4] (ligand: 30 µM Zn), 0.0578 ± 0.0022.
For the variant KIAVER, the sfGFP reporter fluorescence worked out at 0.0626 ± 0.0036 in series [3], 0.946 ± 0.087 in series [4] (ligand: 1 µM Pb) and 0.0548 ± 0.002 in series [4] (ligand: 30 µM Zn).
KIAVET: the sfGFP reporter fluorescence is 0.0672 ± 0.0059 in series [3], 1.21 ± 0.013 in series [4] (ligand: 1 µM Pb) and 0.0607 ± 0.0027 in series [4] (ligand: 30 µM Zn).
DNIKHP: the sfGFP reporter fluorescence in series [3] worked out at 0.043 ± 0.0052; in series [4] (ligand: 1 µM Pb), 0.0535 ± 0.0032; in series [4] (ligand: 30 µM Zn), 0.281 ± 0.018.
As to KIIVET, the values for the sfGFP reporter fluorescence in series [3], in series [4] (ligand: 1 µM Pb) and in series [4] (ligand: 30 µM Zn) were 0.0535 ± 0.0022, 0.346 ± 0.015 and 0.0557 ± 0.0014, respectively.
In the case of KIIVEP, the figures for the sfGFP reporter fluorescence in series [3], in series [4] (ligand: 1 µM Pb) and in series [4] (ligand: 30 µM Zn) were 0.0554 ± 0.0036, 0.372 ± 0.031 and 0.0556 ± 0.0028, respectively.
Turning to KNAKAT, the results for the sfGFP reporter fluorescence in series [3], in series [4] (ligand: 1 µM Pb) and in series [4] (ligand: 30 µM Zn) were 0.0671 ± 0.0058, 0.353 ± 0.02 and 0.795 ± 0.18, respectively.
For KNAKAR, the sfGFP reporter fluorescence came to 0.0687 ± 0.0037 in series [3], 0.394 ± 0.045 in series [4] (ligand: 1 µM Pb) and 0.754 ± 0.11 in series [4] (ligand: 30 µM Zn).
The matching figures for KNAVHT: 0.0573 ± 0.0042, 0.322 ± 0.0077 and 0.602 ± 0.057.
Regarding KNAVHR, the results for the sfGFP reporter fluorescence in series [3], in series [4] (ligand: 1 µM Pb) and in series [4] (ligand: 30 µM Zn) were 0.0557 ± 0.0039, 0.37 ± 0.021 and 0.644 ± 0.054, respectively.
Take DNAVAR: the sfGFP reporter fluorescence came out at 0.0458 ± 0.0027 in series [3], 0.0485 ± 0.0025 in series [4] (ligand: 1 µM Pb) and 0.0579 ± 0.0046 in series [4] (ligand: 30 µM Zn).
Consider DNAVAT, for which the sfGFP reporter fluorescence in series [3] is 0.0419 ± 0.0015; in series [4] (ligand: 1 µM Pb), 0.0454 ± 0.0015; in series [4] (ligand: 30 µM Zn), 0.0637 ± 0.0046.
Regarding KIIVHT, the sfGFP reporter fluorescence worked out at 0.053 ± 0.0034 in series [3], 0.673 ± 0.034 in series [4] (ligand: 1 µM Pb) and 0.101 ± 0.015 in series [4] (ligand: 30 µM Zn).
Turning to KIITER, the values for the sfGFP reporter fluorescence in series [3], in series [4] (ligand: 1 µM Pb) and in series [4] (ligand: 30 µM Zn) were 0.0454 ± 0.0026, 0.266 ± 0.0032 and 0.0497 ± 0.0018, respectively.
In the case of KIITEP, the results for the sfGFP reporter fluorescence in series [3], in series [4] (ligand: 1 µM Pb) and in series [4] (ligand: 30 µM Zn) were 0.0456 ± 0.0027, 0.301 ± 0.011 and 0.0508 ± 0.0019, respectively.
For KIITET, in that order: 0.0468 ± 0.0019, 0.265 ± 0.01 and 0.0513 ± 0.0034.
With DIITAR, the sfGFP reporter fluorescence in series [3] is 0.0463 ± 0.0055; in series [4] (ligand: 1 µM Pb) it was 0.0691 ± 0.0046; in series [4] (ligand: 30 µM Zn), 0.0465 ± 0.0022.
For DIITAT, in that order: 0.0431 ± 0.0041, 0.0634 ± 0.005 and 0.0426 ± 0.0034.
Consider KIAVHP, for which the sfGFP reporter fluorescence amounted to 0.0656 ± 0.0055 in series [3], 1.12 ± 0.13 in series [4] (ligand: 1 µM Pb) and 0.0894 ± 0.011 in series [4] (ligand: 30 µM Zn).
As to KIAVHT, the sfGFP reporter fluorescence in series [3] came to 0.0616 ± 0.0046; in series [4] (ligand: 1 µM Pb), 0.924 ± 0.066; in series [4] (ligand: 30 µM Zn), 0.0797 ± 0.0069.
With KIAVHR, the sfGFP reporter fluorescence was 0.0703 ± 0.001 in series [3], 1.42 ± 0.17 in series [4] (ligand: 1 µM Pb) and 0.0998 ± 0.0092 in series [4] (ligand: 30 µM Zn).
Regarding KNAVAR, the figures for the sfGFP reporter fluorescence in series [3], in series [4] (ligand: 1 µM Pb) and in series [4] (ligand: 30 µM Zn) were 0.0498 ± 0.001, 0.195 ± 0.018 and 0.309 ± 0.028, respectively.
